# Assay results published in patent US20120329707A1 (INDIANA UNIVERSITY RESEARCH AND TECHNOLOGY, published 2012).
# Numbered stars: 1 amine (or outer) side, 2 acyl side, 3 side chain; on linkers, the order of the positions; unused ones are H or OH. Square brackets hold non-standard residues; d marks the D form. Primed or numbered codes have the meaning given here. Side chains are listed from the residue outwards. Ends that are not written are not given here. * marks the point of attachment. 40K‑TE PEG = 40 kDa PEG covalently bound via thioether, formed by reaction of the free thiol of the peptide (Cys side chain) with an iodoacetic-functionalized PEG; 40K‑TE PEG(3) = 40 kDa PEG bound to the Cys thiol via a thioether, made by reacting the free-thiol peptide with iodoacetic-functionalised PEG; 40K‑TE PEG″ = 40 kDa PEG bound to Cys via thioether made from an iodoacetyl-functionalised PEG; EDTA amide = ethylenediaminetetraacetic acid amide, O=C(O)CN(CCN(CC(=O)O)CC(=O)*)CC(=O)O; 20K‑TE PEG = 20 kDa PEG bound via thioether from iodoacetic-functioned PEG; benzoylpropionyl = benzoylpropionyl acyl group, O=C(CCC(=O)*)c1ccccc1; 12K‑ME PEG = 12 kDa PEG bound via maleimido-thioether; Acetyl(1-adamantyl) = O=C(CC12CC3CC(CC(C3)C1)C2)*; γGlu = O=C(O)[C@H](CCC(=O)[*:2])N[*:1]; Palmitoyl = CCCCCCCCCCCCCCCC(=O)*; Aib = CC(C)(N)C(=O)O
# T1: GIP receptor
# T1 sequence (P48546 whole entry, species assumed, looked up): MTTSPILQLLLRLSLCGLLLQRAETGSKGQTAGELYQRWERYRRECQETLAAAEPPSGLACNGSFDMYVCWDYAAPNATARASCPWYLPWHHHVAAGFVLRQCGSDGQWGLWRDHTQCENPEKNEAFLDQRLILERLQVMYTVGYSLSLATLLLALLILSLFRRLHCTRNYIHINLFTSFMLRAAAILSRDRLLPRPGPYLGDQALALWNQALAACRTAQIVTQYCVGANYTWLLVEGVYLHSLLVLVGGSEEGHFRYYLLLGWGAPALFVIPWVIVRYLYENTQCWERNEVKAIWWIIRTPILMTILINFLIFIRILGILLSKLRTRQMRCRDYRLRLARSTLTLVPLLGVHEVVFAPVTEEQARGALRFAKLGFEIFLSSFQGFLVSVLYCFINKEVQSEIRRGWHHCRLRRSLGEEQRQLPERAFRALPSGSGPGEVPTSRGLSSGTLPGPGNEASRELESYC
# B1: peptide of SEQ ID NO: 56 (peptide)
# peptide: H[dA]QGTFTSDK([γGlu-Palmitoyl])SKYLDERAAQDFVQWLLDT-NH2
# B2: peptide of SEQ ID NO: 58 (peptide)
# peptide: H[Aib]QGTFTSDK(Palmitoyl)SKYLDSRRA[Aib]DFVQWLMNT-NH2
# modifications: N-terminus assumed
# SMILES: CCCCCCCCCCCCCCCC(=O)NCCCC[C@H](NC(=O)[C@H](CC(=O)O)NC(=O)[C@H](CO)NC(=O)[C@@H](NC(=O)[C@H](Cc1ccccc1)NC(=O)[C@@H](NC(=O)CNC(=O)[C@H](CCC(N)=O)NC(=O)C(C)(C)NC(=O)[C@@H](N)Cc1c[nH]cn1)[C@@H](C)O)[C@@H](C)O)C(=O)N[C@@H](CO)C(=O)N[C@@H](CCCCN)C(=O)N[C@@H](Cc1ccc(O)cc1)C(=O)N[C@@H](CC(C)C)C(=O)N[C@@H](CC(=O)O)C(=O)N[C@@H](CO)C(=O)N[C@@H](CCCNC(=N)N)C(=O)N[C@@H](CCCNC(=N)N)C(=O)N[C@@H](C)C(=O)NC(C)(C)C(=O)N[C@@H](CC(=O)O)C(=O)N[C@@H](Cc1ccccc1)C(=O)N[C@H](C(=O)N[C@@H](CCC(N)=O)C(=O)N[C@@H](Cc1c[nH]c2ccccc12)C(=O)N[C@@H](CC(C)C)C(=O)N[C@@H](CCSC)C(=O)N[C@@H](CC(N)=O)C(=O)N[C@H](C(N)=O)[C@@H](C)O)C(C)C
# B3: peptide of SEQ ID NO: 59 (peptide)
# peptide: H[Aib]QGTFTSDK(Palmitoyl)SKYLDERRA[Aib]DFVQWLMNT-NH2
# modifications: N-terminus assumed
# SMILES: CCCCCCCCCCCCCCCC(=O)NCCCC[C@H](NC(=O)[C@H](CC(=O)O)NC(=O)[C@H](CO)NC(=O)[C@@H](NC(=O)[C@H](Cc1ccccc1)NC(=O)[C@@H](NC(=O)CNC(=O)[C@H](CCC(N)=O)NC(=O)C(C)(C)NC(=O)[C@@H](N)Cc1c[nH]cn1)[C@@H](C)O)[C@@H](C)O)C(=O)N[C@@H](CO)C(=O)N[C@@H](CCCCN)C(=O)N[C@@H](Cc1ccc(O)cc1)C(=O)N[C@@H](CC(C)C)C(=O)N[C@@H](CC(=O)O)C(=O)N[C@@H](CCC(=O)O)C(=O)N[C@@H](CCCNC(=N)N)C(=O)N[C@@H](CCCNC(=N)N)C(=O)N[C@@H](C)C(=O)NC(C)(C)C(=O)N[C@@H](CC(=O)O)C(=O)N[C@@H](Cc1ccccc1)C(=O)N[C@H](C(=O)N[C@@H](CCC(N)=O)C(=O)N[C@@H](Cc1c[nH]c2ccccc12)C(=O)N[C@@H](CC(C)C)C(=O)N[C@@H](CCSC)C(=O)N[C@@H](CC(N)=O)C(=O)N[C@H](C(N)=O)[C@@H](C)O)C(C)C
# B4: peptide of SEQ ID NO: 16 (peptide)
# peptide: H[Aib]QGTFTSDYSKYLDEKRA[Aib]EFVC(40K‑TE PEG″)WLLDE-NH2
# B5: peptide of SEQ ID NO: 46 (peptide)
# peptide: H[Aib]QGTFTSDYSKYLD[Aib]KRA[Aib]EFVC(40K‑TE PEG(3))WLLDGGPSSGAPPPS-NH2
# B6: peptide of SEQ ID NO: 49 (peptide)
# peptide: H[dS]QGTFTSDK(benzoylpropionyl)SKYLDERAAQDFVQWLLDGGPSSGAPPPS-NH2
# modifications: N-terminus assumed
# SMILES: CC(C)C[C@H](NC(=O)[C@H](CC(C)C)NC(=O)[C@H](Cc1c[nH]c2ccccc12)NC(=O)[C@H](CCC(N)=O)NC(=O)[C@@H](NC(=O)[C@H](Cc1ccccc1)NC(=O)[C@H](CC(=O)O)NC(=O)[C@H](CCC(N)=O)NC(=O)[C@H](C)NC(=O)[C@H](C)NC(=O)[C@H](CCCNC(=N)N)NC(=O)[C@H](CCC(=O)O)NC(=O)[C@H](CC(=O)O)NC(=O)[C@H](CC(C)C)NC(=O)[C@H](Cc1ccc(O)cc1)NC(=O)[C@H](CCCCN)NC(=O)[C@H](CO)NC(=O)[C@H](CCCCNC(=O)CCC(=O)c1ccccc1)NC(=O)[C@H](CC(=O)O)NC(=O)[C@H](CO)NC(=O)[C@@H](NC(=O)[C@H](Cc1ccccc1)NC(=O)[C@@H](NC(=O)CNC(=O)[C@H](CCC(N)=O)NC(=O)[C@@H](CO)NC(=O)[C@@H](N)Cc1c[nH]cn1)[C@@H](C)O)[C@@H](C)O)C(C)C)C(=O)N[C@@H](CC(=O)O)C(=O)NCC(=O)NCC(=O)N1CCC[C@H]1C(=O)N[C@@H](CO)C(=O)N[C@@H](CO)C(=O)NCC(=O)N[C@@H](C)C(=O)N1CCC[C@H]1C(=O)N1CCC[C@H]1C(=O)N1CCC[C@H]1C(=O)N[C@@H](CO)C(N)=O
# B7: peptide of SEQ ID NO: 51 (peptide)
# peptide: H[Aib]QGTFTSDYSKYLDEKRA[Aib]EFVC(40K‑TE PEG)WLL[Aib]GGPSSGAPPPS-NH2
# B8: peptide of SEQ ID NO: 42 (peptide)
# peptide: H[Aib]QGTFTSDYSKYLDEKRA[Aib]EFV[Aib]WLLC(40K‑TE PEG)T-NH2
# B9: peptide of SEQ ID NO: 38 (peptide)
# peptide: H[Aib]QGTFTSDYSKYLD[Aib]KRA[Aib]EFVC(40K‑TE PEG″)WLLDT-NH2
# B10: peptide of SEQ ID NO: 54 (peptide)
# peptide: H[Aib]QGTFTSDYSKYLDEKRA[Aib]DFVC(40K‑TE PEG(3))WLLDT-NH2
# B11: peptide of SEQ ID NO: 48 (peptide)
# peptide: H[dS]QGTFTSDK([γGlu-Acetyl(1-adamantyl)])SKYLDERAAQDFVQWLLDT-NH2
# modifications: N-terminus assumed
# SMILES: CC(C)C[C@H](NC(=O)[C@H](Cc1ccc(O)cc1)NC(=O)[C@H](CCCCN)NC(=O)[C@H](CO)NC(=O)[C@H](CCCCNC(=O)CC[C@H](NC(=O)CC12CC3CC(CC(C3)C1)C2)C(=O)O)NC(=O)[C@H](CC(=O)O)NC(=O)[C@H](CO)NC(=O)[C@@H](NC(=O)[C@H](Cc1ccccc1)NC(=O)[C@@H](NC(=O)CNC(=O)[C@H](CCC(N)=O)NC(=O)[C@@H](CO)NC(=O)[C@@H](N)Cc1c[nH]cn1)[C@@H](C)O)[C@@H](C)O)C(=O)N[C@@H](CC(=O)O)C(=O)N[C@@H](CCC(=O)O)C(=O)N[C@@H](CCCNC(=N)N)C(=O)N[C@@H](C)C(=O)N[C@@H](C)C(=O)N[C@@H](CCC(N)=O)C(=O)N[C@@H](CC(=O)O)C(=O)N[C@@H](Cc1ccccc1)C(=O)N[C@H](C(=O)N[C@@H](CCC(N)=O)C(=O)N[C@@H](Cc1c[nH]c2ccccc12)C(=O)N[C@@H](CC(C)C)C(=O)N[C@@H](CC(C)C)C(=O)N[C@@H](CC(=O)O)C(=O)N[C@H](C(N)=O)[C@@H](C)O)C(C)C
# B12: peptide of SEQ ID NO: 13 (peptide)
# peptide: H[Aib]QGTFTSDYSKYLDEKRA[Aib]EFVC(40K‑TE PEG)WLLDT-NH2
# B13: peptide of SEQ ID NO: 44 (peptide)
# peptide: H[dS]QGTFTSDK([γGlu-Palmitoyl])SKYLDEQAAKEFIC(20K‑TE PEG)WLLDT-NH2
# B14: peptide of SEQ ID NO: 47 (peptide)
# peptide: H[Aib]QGTFTSDYSKYLDEKRA[Aib]EFVC(40K‑TE PEG)WLLDGGPSSGAPPPS-NH2
# B15: peptide of SEQ ID NO: 52 (peptide)
# peptide: H[Aib]QGTFTSDYSKYLDEK[Aib]AKEFVC(40K‑TE PEG(3))WLLDT-NH2
# B16: peptide of SEQ ID NO: 43 (peptide)
# peptide: H[dS]QGTFTSDK([γGlu-Palmitoyl])SKYLDEQAAKEFIC(12K‑ME PEG)WLLDT-NH2
# B17: peptide of SEQ ID NO: 45 (peptide)
# peptide: H[Aib]QGTFTSDYSKYLDEKRA[Aib]EFVC(40K‑TE PEG)WLLDT-OH
# B18: peptide of SEQ ID NO: 55 (peptide)
# peptide: H[dS]QGTFTSDK(EDTA amide)SKYLDERAAQDFVQWLLDGGPSSGAPPPS-NH2
# B19: peptide of SEQ ID NO: 39 (peptide)
# peptide: H[Aib]QGTFTSDYSKYLD[Aib]KRAKEFVQWLLC(40K‑TE PEG)T-OH
# B20: peptide of SEQ ID NO: 41 (peptide)
# peptide: H[Aib]QGTFTSDYSKYLDEKRA[Aib]EFVC(40K‑TE PEG)WLL[Aib]T-NH2
# B21: peptide of SEQ ID NO: 40 (peptide)
# peptide: H[Aib]QGTFTSDYSKYLD[Aib]KRAKEFVQWLLDTC(40K‑TE PEG″)-NH2
# Molecular target: T1, GIP receptor
# Assay: cell-based or functional assay
row,Binder,EC50 (nM) at GIP receptor [nM]
1,B1,1.64
2,B2,35.7
3,B3,7.48
4,B4,465

# Molecular target: GLP-1 receptor
# Assay: cell-based or functional assay
row,Binder,EC50 (nM) at GLP-1 receptor [nM]
1,B5,0.136
2,B6,0.01
3,B7,0.062
4,B8,0.117
5,B9,0.31
6,B1,0.02
7,B10,0.097
8,B2,0.025
9,B11,0.039
10,B12,0.067
11,B13,0.017
12,B14,0.052
13,B15,0.054
14,B16,0.011
15,B3,0.01
16,B17,1.44
17,B18,0.108
18,B19,1.28
19,B20,0.074
20,B21,0.653
21,B4,0.487

# Molecular target: glucagon receptor
# Assay: cell-based or functional assay
row,Binder,EC50 (nM) at glucagon receptor [nM]
1,B5,0.227
2,B6,0.063
3,B7,2.04
4,B8,1.01
5,B9,0.141
6,B1,0.006
7,B10,0.939
8,B2,0.09
9,B11,0.026
10,B12,0.141
11,B13,0.023
12,B14,0.591
13,B15,4.5
14,B16,0.02
15,B3,0.051
16,B17,0.651
17,B18,4.34
18,B19,0.852
19,B20,0.309
20,B21,1.19
21,B4,0.563
